Laboratory results: patent US20250109201A1 (AGENUS, published 2025)

Tests used:
[1] = molecular target: T1, recombinant human LILRB4/ILT3 (Sino Biological 16742-H08H) (human, UniProt Q8NHJ6 22-259); test: SPR
T1 construct: Bought
Source text: (§1) Irrelevant antibody VRC01 IgG1 N297A was used as a negative isotype control.

[2] = molecular target: T2, recombinant human LILRA6/ILT8 (Sino Biological 29813-H08H-50) (human, UniProt Q6PI73 24-447); test: SPR
T2 construct: Bought
Source text: as §1

[3] = molecular target: T3, recombinant human LILRA2/ILT1 (R&D Systems 9040-T4-050) (human, UniProt Q8N149 24-449); test: SPR
T3 construct: Bought
Source text: as §1

[4] = molecular target: T4, recombinant human LILRA5/ILT11 (Sino Biological 16059-H08H-100) (human, UniProt A6NI73 42-268); test: SPR
T4 construct: Bought
Source text: as §1

[5] = molecular target: T5, recombinant human LILRA4/ILT7 (Sino Biological 16058-H08H-50) (human, UniProt P59901 24-446); test: SPR
T5 construct: Bought
Source text: as §1

[6] = molecular target: T6, recombinant human LILRB5/LIR-8 (Sino Biological 17221-H08H-100) (human, UniProt O75023 24-458); test: SPR
T6 construct: Bought
Source text: as §1

[7] = molecular target: T7, recombinant human LILRB3/ILT5 (R&D Systems 9159-T5-050) (human, UniProt O75022 24-443); test: SPR
T7 construct: Bought
Source text: as §1

[8] = molecular target: T8, ECD-His tagged human ILT2 haplotype PE01 (human, UniProt Q8NHL6 24-458); test: SPR, LILRA and LILRB family panel
T8 construct: also called Human ILT2 PE01 ECD; LILRB1/ILT2 PE01; not shown: His tag
Source text: as §1

[9] = molecular target: T9, recombinant human LILRA3/ILT6 (Sino Biological 13549-H08H-100) (human, UniProt Q8N6C8 24-439); test: SPR, LILRA and LILRB family panel
T9 construct: Bought
Source text: as §1

[10] = molecular target: T10, recombinant human LILRA1/LIR-6 (Sino Biological 17220-H08H-100) (human, UniProt O75019 17-461); test: SPR, LILRA and LILRB family panel
T10 construct: Bought
Source text: as §1

[11] = molecular target: full-length ILT2 expressed on Jurkat cells (human, UniProt Q8NHL6 24-650); test: cell-based or functional assay
[12] = molecular target: T11, human ILT2 extracellular and transmembrane domains expressed on CHO cells (human, UniProt Q8NHL6 24-482, limits assumed); test: flow cytometry, CHO cells with low human ILT2
T11 construct: domain: extracellular and transmembrane domains; which one is told under assay; also called CHO cells expressing human ILT2 (relatively low or relatively high level); CHO-ILT2 cells
Method: (§2) CHO cells expressing relatively high and low levels of human ILT2 were seeded in a 96-well U-bottom tissue culture plate at a density of 2×10⁵ cells per well in 50 μL of PBS supplemented with 0.5% BSA, 1 mM EDTA and 0.05% sodium azide (FACS Buffer). The cells were incubated for 30 minutes at 4° C. with 50 μL of a series dilution of anti-ILT2 antibodies or isotype control (VRC01 IgG₄) at concentrations from 10 μg/mL to 0.2 ng/mL in FACS Buffer.
(§3) For antibody staining, the cells were washed three times with cold FACS Buffer and resuspended in FACS Buffer containing a FITC-conjugated mouse anti-human IgG₄ antibody (Southern Biotech/9190-02) at a final concentration of […]. After a 30-minute incubation in the dark at 4° C., the cells were washed three times and analyzed as above.

[13] = molecular target: T11, human ILT2 extracellular and …; test: flow cytometry, CHO cells with high human ILT2
Method: as §2, §3

T11 sequence (Q8NHL6 24-482 limits assumed): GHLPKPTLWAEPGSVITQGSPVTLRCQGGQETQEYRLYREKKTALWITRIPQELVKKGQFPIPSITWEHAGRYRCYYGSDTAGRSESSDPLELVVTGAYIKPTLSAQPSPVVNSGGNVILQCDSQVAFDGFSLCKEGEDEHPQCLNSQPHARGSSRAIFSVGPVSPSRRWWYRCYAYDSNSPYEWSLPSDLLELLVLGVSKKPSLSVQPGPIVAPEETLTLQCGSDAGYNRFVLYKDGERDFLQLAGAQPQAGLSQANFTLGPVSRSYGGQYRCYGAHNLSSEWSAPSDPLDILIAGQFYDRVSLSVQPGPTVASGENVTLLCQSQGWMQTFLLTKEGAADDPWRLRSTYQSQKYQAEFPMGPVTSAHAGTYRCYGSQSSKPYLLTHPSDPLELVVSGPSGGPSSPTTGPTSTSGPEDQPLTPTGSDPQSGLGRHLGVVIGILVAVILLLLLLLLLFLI
T3 sequence (Q8N149 24-449 limits assumed): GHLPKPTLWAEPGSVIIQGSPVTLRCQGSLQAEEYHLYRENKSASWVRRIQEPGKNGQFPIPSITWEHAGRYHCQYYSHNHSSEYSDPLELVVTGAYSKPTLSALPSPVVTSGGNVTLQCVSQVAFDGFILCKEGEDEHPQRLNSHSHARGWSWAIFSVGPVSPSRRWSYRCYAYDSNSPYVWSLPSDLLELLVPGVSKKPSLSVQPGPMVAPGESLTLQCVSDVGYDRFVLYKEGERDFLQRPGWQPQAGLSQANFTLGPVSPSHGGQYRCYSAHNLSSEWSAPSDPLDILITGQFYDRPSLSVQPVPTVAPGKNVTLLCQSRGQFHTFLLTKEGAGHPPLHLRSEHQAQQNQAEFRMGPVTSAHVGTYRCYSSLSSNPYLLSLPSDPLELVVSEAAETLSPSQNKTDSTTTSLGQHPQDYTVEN
T6 sequence (O75023 24-458 limits assumed): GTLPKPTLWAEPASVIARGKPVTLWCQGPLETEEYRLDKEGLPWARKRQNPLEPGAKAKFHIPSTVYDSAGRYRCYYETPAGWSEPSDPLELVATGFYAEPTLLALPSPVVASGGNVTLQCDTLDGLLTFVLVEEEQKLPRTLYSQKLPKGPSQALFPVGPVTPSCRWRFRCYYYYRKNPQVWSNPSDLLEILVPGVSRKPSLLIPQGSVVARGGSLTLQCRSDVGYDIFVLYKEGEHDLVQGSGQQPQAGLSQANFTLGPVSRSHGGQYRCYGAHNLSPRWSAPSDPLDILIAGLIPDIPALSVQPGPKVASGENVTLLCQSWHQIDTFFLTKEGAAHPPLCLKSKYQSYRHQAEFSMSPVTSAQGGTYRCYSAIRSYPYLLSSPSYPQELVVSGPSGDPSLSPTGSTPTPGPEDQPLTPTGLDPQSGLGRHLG
T2 sequence (Q6PI73 24-447 limits assumed): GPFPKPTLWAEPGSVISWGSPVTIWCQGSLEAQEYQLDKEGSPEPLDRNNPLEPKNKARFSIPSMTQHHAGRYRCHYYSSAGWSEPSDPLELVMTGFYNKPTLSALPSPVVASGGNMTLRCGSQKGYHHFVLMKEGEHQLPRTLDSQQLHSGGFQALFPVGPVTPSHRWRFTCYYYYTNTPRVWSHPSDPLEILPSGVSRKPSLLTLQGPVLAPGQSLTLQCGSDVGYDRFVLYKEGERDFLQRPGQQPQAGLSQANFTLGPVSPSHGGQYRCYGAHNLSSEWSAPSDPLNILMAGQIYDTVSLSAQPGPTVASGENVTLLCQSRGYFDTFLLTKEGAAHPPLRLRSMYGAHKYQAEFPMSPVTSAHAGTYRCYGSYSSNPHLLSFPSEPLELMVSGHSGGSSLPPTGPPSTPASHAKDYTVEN
T5 sequence (P59901 24-446 limits assumed): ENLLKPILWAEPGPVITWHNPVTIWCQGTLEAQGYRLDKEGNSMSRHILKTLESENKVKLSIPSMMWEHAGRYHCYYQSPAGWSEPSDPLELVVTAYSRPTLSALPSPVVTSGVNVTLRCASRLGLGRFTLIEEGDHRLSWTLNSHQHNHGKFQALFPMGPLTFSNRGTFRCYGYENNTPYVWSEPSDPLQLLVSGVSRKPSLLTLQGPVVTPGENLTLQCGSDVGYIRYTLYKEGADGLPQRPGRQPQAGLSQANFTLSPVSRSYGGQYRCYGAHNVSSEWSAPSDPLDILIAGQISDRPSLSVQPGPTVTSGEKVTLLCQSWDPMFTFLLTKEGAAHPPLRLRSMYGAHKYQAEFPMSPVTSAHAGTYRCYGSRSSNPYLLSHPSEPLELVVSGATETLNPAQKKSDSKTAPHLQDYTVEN
T9 sequence (Q8N6C8 24-439 limits assumed): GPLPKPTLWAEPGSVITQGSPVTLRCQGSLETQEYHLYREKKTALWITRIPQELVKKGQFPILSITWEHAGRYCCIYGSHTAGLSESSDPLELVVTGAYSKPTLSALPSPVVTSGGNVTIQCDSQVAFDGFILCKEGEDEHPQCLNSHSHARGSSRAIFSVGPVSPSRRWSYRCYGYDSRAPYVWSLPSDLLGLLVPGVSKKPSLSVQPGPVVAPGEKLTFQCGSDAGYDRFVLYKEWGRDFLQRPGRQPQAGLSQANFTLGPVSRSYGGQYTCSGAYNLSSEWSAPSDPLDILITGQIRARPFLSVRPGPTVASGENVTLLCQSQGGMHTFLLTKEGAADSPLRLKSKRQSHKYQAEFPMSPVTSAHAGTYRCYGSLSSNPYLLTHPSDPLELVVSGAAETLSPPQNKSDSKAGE
T8 sequence (Q8NHL6 24-458): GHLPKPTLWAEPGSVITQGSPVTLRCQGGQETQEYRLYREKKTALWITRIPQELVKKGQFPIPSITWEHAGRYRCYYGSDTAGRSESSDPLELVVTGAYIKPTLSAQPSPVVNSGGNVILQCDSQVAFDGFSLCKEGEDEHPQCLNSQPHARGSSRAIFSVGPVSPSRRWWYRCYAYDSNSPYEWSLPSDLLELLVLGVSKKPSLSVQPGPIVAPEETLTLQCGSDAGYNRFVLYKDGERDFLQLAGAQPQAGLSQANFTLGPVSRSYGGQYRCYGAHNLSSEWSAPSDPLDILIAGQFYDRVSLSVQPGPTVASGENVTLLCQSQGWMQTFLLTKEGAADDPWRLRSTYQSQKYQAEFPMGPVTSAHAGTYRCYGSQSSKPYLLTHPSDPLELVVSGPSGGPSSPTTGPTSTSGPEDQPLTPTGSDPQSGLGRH
Chain of full-length ILT2 expressed on Jurkat cells (Q8NHL6 24-650): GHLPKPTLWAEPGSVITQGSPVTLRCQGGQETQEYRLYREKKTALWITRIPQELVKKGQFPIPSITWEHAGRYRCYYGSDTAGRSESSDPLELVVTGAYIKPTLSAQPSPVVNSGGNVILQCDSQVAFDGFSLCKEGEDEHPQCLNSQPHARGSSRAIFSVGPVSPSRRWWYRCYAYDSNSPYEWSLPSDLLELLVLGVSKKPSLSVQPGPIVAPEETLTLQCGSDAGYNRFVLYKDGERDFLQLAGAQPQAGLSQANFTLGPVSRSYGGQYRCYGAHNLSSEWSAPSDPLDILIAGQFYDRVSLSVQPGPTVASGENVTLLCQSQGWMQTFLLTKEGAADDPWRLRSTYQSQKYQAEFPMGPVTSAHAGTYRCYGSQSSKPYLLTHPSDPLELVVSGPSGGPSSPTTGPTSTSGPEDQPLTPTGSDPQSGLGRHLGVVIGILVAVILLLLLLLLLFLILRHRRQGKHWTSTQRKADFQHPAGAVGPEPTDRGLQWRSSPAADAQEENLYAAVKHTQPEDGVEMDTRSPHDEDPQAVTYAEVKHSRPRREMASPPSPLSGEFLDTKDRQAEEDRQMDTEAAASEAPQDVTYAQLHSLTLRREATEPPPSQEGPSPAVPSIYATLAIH
T10 sequence (O75019 17-461 limits assumed): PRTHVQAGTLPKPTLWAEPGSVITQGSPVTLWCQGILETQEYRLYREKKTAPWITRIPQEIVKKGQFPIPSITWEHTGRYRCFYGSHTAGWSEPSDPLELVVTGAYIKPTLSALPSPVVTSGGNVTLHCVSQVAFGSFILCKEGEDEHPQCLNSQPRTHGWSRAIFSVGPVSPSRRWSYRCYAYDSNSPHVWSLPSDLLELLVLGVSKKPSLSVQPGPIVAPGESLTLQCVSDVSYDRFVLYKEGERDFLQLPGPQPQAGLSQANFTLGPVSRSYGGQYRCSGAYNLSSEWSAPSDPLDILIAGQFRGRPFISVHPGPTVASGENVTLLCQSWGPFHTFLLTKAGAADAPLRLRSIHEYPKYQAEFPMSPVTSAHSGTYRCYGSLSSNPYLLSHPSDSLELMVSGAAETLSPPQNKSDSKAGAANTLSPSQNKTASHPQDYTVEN
T4 sequence (A6NI73 42-268 limits assumed): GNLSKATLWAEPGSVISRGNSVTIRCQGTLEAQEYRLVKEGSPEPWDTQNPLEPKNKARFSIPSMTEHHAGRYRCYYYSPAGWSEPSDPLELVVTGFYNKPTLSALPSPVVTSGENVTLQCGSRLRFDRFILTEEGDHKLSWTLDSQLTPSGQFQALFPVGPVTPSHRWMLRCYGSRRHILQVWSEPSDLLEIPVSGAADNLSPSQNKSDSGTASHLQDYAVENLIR

binding result [1]: no binding | binding result [2]: no binding | binding result [3]: no binding | binding result [4]: no binding | binding result [5]: no binding | binding result [6]: no binding | binding result [7]: no binding | Kd [8]: 10 nM | Kd [9]: 24 nM | Kd [10]: 21 nM | FcγRIIIa-NFAT luciferase signaling, EC50 [11]: 0.43 µg/mL | EC50 [12]: 0.019 µg/mL | EC50 [13]: 0.155 µg/mL
B1: 15G8 (Reference antibody) (antibody, V domains shown)
VH: DVQLQGSGPGLVKPSETLSLTCSVTGYSITSGYYWNWIRQFPGKKLEWMGYISYDGSNNYNPSLKNRITISRDTSKNQFSLKLNSVTAADTATYYCAHGYSYYYAMDAWGQGTSVTVSS
VL: DIQMTQSPSSLSASVGDRVTITCRTSQDISNYLNWYQQKPGKAVKLLISYTSRLHSGVPSRFSGSGSGTDYTLTISSLQPEDFATYYCQQGNTLPTFGQGTKLEIK
